The source of these data is US20240151714A1.

In assay [1] the target is hCG-first DNA conjugate (human) (UniProt P01215). Kind of assay: cell-based or functional assay.
The target of assay [2] is hCG-second DNA conjugate (human) (UniProt P01215). Kind of assay: cell-based or functional assay.
Sequence of hCG-second DNA conjugate (human) (P01215 other isoform, or with tags, fused parts or gaps limits assumed, chain 1 of 2, other chains not shown): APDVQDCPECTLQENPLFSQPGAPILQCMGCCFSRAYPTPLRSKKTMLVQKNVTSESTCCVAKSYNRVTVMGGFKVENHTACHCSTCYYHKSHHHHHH

Sequence of hCG-first DNA conjugate (human) (P01215 other isoform, or with tags, fused parts or gaps limits assumed, chain 1 of 2, other chains not shown): as above

With “hCG monoclonal antibody (MA5-14680; Thermo Fisher Scientific)”, the limit of detection (LOD) for the antibody, PPR-based immunoassay (absorbance at 405 nm) in assay [1] and in assay [2] was 9.83 pM each time.
